Legend:
[1] = tested on: Human peripheral blood mononuclear cells (PBMCs); experiment: CMV antigen recall assay, IFN gamma; type: cell-based; conditions: 10 ug/ml final, CMV 4 days, vs isotype control
Description: To assess the ability of Gal3-targeted antibodies with Gal3-TIM-3 blocking activity to enhance T-cell mediated responses, a CMV antigen recall assay was used. Human peripheral blood mononuclear cells (PBMCs) (Astarte, donor ID 230) were quickly thawed in 37 C water bath, resuspended in 20 ml of RPMI media with 10% FBS, and centrifuged at 1500 RPM for 5 min. Media was discarded pellet resuspended in 20 ml media and counted by […], and diluted to a final concentration of 4 million/ml in Serum free Media (Lonza). 50 ul of media plus cells (200,000 cells/well) were added to 60 inner wells of a 96 well round bottom plate, and incubated at 37 C for 30 min. Antibodies were added to serum free media to a stock concentration of 4× the final concentration (40 ug/ml). 50 ul of antibodies at 4× concentration were added directly to the PBMCS and incubated at 37 C for 30 min. After PBMCs were incubated with antibodies for 30 min, 100 ul of CMV (Astarte Biologics, Cat. #1004) at 2× concentration (1 ug/ml) directly to the cells and incubated for 4 days at 37 C. On Day 4, 10 ul of cell supernatant were collected to measure human IFN gamma concentration by ELISA via a human IFN-gamma ELISA kit (Invitrogen).

[2] = target: human Gal3-His (Homo sapiens, UniProt P17931); experiment: Antibody binning by biolayer interferometry (Gator); type: binding; conditions: antibody competition
[3] = tested on: B16F10 cells
Description: The animal experiments were conducted according to a protocol approved by the Molecular Medicine Research Institute Institutional Animal Care and Use Committee. C57BL/6 mice were placed in a facility accredited by the Association for Assessment and Accreditation of Laboratory Animal Care upon arrival. Thirty six of 7-week old female mice were randomly assigned into three groups (n=12). On day 0, B16F10 cells (2×10^5 in 0.1 mL PBS) were washed and resuspended in PBS before injection into the tail veins of mice using a syringe with a 27-ga needle. […] On day 21, the animals were humanely sacrificed and lung tissues were removed and fixed in a 10% buffered formaldehyde solution. The number of black metastatic colonies on one surface of the left lobes in the lungs were counted (FIG. 7B). Results were expressed as mean±SEM. The statistical analysis was performed in comparison with IgG control group using one-way ANOVA.

[4] = target: Galectin-3 (Homo sapiens, UniProt P17931); experiment: SPR (BiacoreT200) binding affinity; conditions: 25° C., read-out: hGal-3 KD
[5] = tested on: mouse macrophage cell line RAW264.7; experiment: IHC and flow cytometry staining of RAW mouse macrophages; type: cell-based
Description: The expression of Gal3 on mouse macrophages was detected by both IHC and Flow cytometry analysis. In the details of IHC, 100,000 cells per well were seeded overnight. On the second day, cells were washed once with PBS, fixed with 3% formaldehyde at room temperature for 10 min, then washed twice with PBS and blocked in PBS containing 10% FBS and […] for 1 h at room temperature. After blocking, cells were incubated with 10 μg/mL of 1st antibody mIgG-biotin (BioLegend) or IMT001-biotin at 4° C. overnight, washed three times with PBST, stained with avidin-HRP (1:1000) at room temperature for 1 h and then washed three times again with PBST. The staining was developed using peroxidase substrate and counterstained with Hematoxylin QS (Vector Laboratories).
In the experiment of flow cytometry, 100,000 RAW cells were blocked with 10% FBS plus 200 μg/mL hIgG on ice for 20 min, and then incubated with 100 μl 10% FBS HBSS solution that contains control mIgG (BD Biosciences) or IMT001 at 10 μg/ml on ice for 20 minutes. Then cells were washed and incubated with APC conjugated anti-mFc antibodies (Jackson ImmunoResearch) at 1:100 on ice for 20 min. After spinning, live/dead cells were stained with Violet dead cell stain kit (Life Technologies). Stained cells were subjected to flow analysis.

[6] = tested on: human dendritic cells (DC), M1 and M2 macrophage cells; experiment: Flow cytometry staining of human DC, M1 and M2 macrophages; type: cell-based; conditions: 10 μg/ml
Description: First Human CD14 monocytes were isolated from peripheral blood mononuclear cells (PBMC) with a CD14 cell positive selection kit (Miltenyi, Auburn, Calif.) and differentiated into dendritic cells (DC), or into M1 macrophages, or into M2 macrophages in the presence of GM-CSF plus IL-4, or GM-CSF, or M-CSF (Rocky Hill, N.J.), respectively. Then flow cytometry analysis was performed to detect Gal3 expression on human dendritic cells (DC), M1 and M2 macrophage cells. In details, 100,000 DC, M1 or M2 cells were incubated with 100 μl 10% FBS HBSS solution that contains with control mIgG-biotin (BioLegend) or IMT001-biotin at 10 μg/ml on ice for 20 minutes. Then cells were washed and incubated with PE-streptavidin (BioLegend) at 1:1000 on ice for 20 min. After spinning, live/dead cells were stained with Violet dead cell stain kit (Life Technologies). Stained cells were subjected to flow analysis.

Chain of Galectin-3 (P17931 whole entry): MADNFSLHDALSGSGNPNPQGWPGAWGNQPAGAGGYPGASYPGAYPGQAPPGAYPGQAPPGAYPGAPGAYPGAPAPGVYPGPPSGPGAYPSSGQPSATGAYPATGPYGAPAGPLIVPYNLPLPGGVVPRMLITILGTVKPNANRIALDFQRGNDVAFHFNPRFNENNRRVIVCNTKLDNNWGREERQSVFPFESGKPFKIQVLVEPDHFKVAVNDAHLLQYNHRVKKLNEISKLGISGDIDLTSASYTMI
Chain of human Gal3-His (P17931 whole entry): as above

Bin [2]: 1 | Kd [4]: 1.67 nM
B1: IMT001: anti-Gal3 monoclonal antibody (Immutics); printed as mIMT001 (IMT001), murine (antibody, V domains shown)
VH: QIQLVQSGPELKKPGETVKISCKASGYTFTNYGMNWVKQAPGKGLKWMGWINTNTGEPTYVEEFKGRFAFSLETSASTAYLQINNLKNEDTATYFCAPYDNFFAYWGQGTLVTVSA
VL: DIVITQDELSNPVTSGESVSISCRSSKSLLYKDGKTYLNWFLQRPGQSPQLLIYLMSTHASGVSDRFSGSGSGTDFTLEISRVKAEDVGVYYCQQLVDYPLTFGAGTKLELK
interferon-gamma secretion [1]: significantly increased levels | reduction of tumor number (black metastatic colonies) ([3]; 10 mg/Kg i.p., day 21, vs isotype control): about 46% | anti-tumor effect, tumor number ([3]; 10 mg/Kg i.p., vs isotype control): significant reduction of tumor number | tumor burden as indicated by lung weight ([3]; vs isotype control): much less tumor burden | IHC detection of Gal3 on macrophages ([5]; 10 μg/mL, vs mIgG control): clearly detected Gal3 expression on macrophages | MFI of stained RAW cells vs isotype control ([5]; 10 μg/ml, flow cytometry): more than 10 folds | staining of dendritic cells and M1 macrophages [6]: could not be stained | mean fluorescence intensity (MFI) of stained M2 cells vs isotype control ([6]; human M2 macrophages): much higher

From patent US20220380473A1, “ANTI-GAL3 ANTIBODIES AND USES THEREOF” (TrueBinding, Inc., priority 2019, published 2022)
